Measurements reported in paper PMC6329447.
Changes are numbered by the printed parent chain.

How the values were obtained:
[1] = molecular target: zebrafish Olig1, mammalian two-hybrid fusion (zebrafish); assay: two-hybrid
[2] = molecular target: zebrafish Olig2, mammalian two-hybrid fusion (zebrafish); assay: two-hybrid
[3] = molecular target: T1, Sox10 (Danio rerio (zebrafish), UniProt Q90XD1 1-485); assay: EMSA
[4] = molecular target: T2, Olig1 (Danio rerio (zebrafish), UniProt Q5QJR2 1-235); assay: EMSA
T2 sequence: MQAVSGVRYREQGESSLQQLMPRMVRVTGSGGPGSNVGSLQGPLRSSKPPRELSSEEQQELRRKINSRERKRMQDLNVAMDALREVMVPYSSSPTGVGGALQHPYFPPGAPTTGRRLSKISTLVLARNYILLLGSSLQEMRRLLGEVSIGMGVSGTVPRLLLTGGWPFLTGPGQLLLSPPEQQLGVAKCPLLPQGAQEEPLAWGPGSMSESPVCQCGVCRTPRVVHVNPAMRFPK

[5] = molecular target: T1, Sox10; assay: competition
[6] = molecular target: T2, Olig1; assay: competition

## zebrafish Olig1, mammalian two-hybrid fusion (natural protein)
[1]
  fold increase of luciferase activity: 8 fold
[2]
  fold increase of luciferase activity: 8 fold

B1: EbS2 (dsDNA)
DNA 1: CAAGTCGGGGCAGATGTGGACTAGAACAATAGCAGCTCC
DNA 2: GGAGCTGCTATTGTTCTAGTCCACATCTGCCCCGACTTG
[3]
  binding result: binds
[4]
  binding result: binds

B2: EbS2mut (dsDNA)
DNA 1: B1 DNA 1 with A25G, A26C, A28G, A29C
DNA 2: B1 DNA 2 with T11G, T12C, T14G, T15C
[5]
  binding result: no binding

B3: EbmutS2 (dsDNA)
DNA 1: CAAGTCGGGGTTGTAATGGACTAGAACAATAGCAGCTCC
DNA 2: GGAGCTGCTATTGTTCTAGTCCATTACAACCCCGACTTG
[6]
  binding result: no binding
